This note sets out measurements from patent US20030175271A1 (Kyowa Kirin, published 2003).

For this experiment, the target named is ^125I-labeled human VEGF (human, UniProt P15692-4 27-191, limits assumed, 125I-labeled). The experiment can be described thus: competition against ^125I-VEGF (4 ng/ml) binding to coated KDR-7N-Fc. The protocol: Methanol was dispensed in 100 μl portions into wells of a 96-well Immobilon™-P Filtration Plate (manufactured by Millipore) to give hydrophilic nature to the PVDF membrane on the bottom of the plate. […] After washing, PBS containing 1% bovine serum albumin (BSA) was added in 200 μl/well portions and the reaction was carried out at room temperature for 30 minutes to block the remaining active residues.
Sequence of ^125I-labeled human VEGF (P15692 other isoform, or with tags, fused parts or gaps limits assumed): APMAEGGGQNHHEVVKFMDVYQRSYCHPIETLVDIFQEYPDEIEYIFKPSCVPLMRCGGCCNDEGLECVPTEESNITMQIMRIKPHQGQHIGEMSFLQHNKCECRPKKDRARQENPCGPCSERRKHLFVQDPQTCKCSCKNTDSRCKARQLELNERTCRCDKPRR

B1: soluble human VEGF receptor KDR-1N-Fc (Fc fusion)
chain: ASVGLPSVSLDLPRLSIQKDILTIKANTTLQITCRGQRDLDWLWPNNQSGSEQRVEVTECSDGLFCKTLTIPKVIGNDTGAYKCFYRETDLASVIYVYVQDYRS
notes: not shown: linker #1 (6 residues)
Consider B1, for which the binding result was “no binding”.
